Substrate: OCCCCCO
Assay: Reactions of horse liver ADH1E with 1,5-pentanediol and 5-hydroxypentanal
Format: biochemical
Conditions: pH 7.0; 25.0 °C

B1: horse liver ADH1E (Equus caballus) (protein)
chain: STAGKVIKCKAAVLWEEKKPFSIEEVEVAPPKAHEVRIKMVATGICRSDDHVVSGTLVTPLPVIAGHEAAGIVESIGEGVTTVRPGDKVIPLFTPQCGKCRVCKHPEGNFCLKNDLSMPRGTMQDGTSRFTCRGKPIHHFLGTSTFSQYTVVDEISVAKIDAASPLEKVCLIGCGFSTGYGSAVKVAKVTQGSTCAVFGLGGVGLSVIMGCKAAGAARIIGVDINKDKFAKAKEVGATECVNPQDYKKPIQEVLTEMSNGGVDFSFEVIGRLDTMVTALSCCQEAYGVSVIVGVPPDSQNLSMNPMLLLSGRTWKGAIFGGFKSKDSVPKLVADFMAKKFALDPLITHVLPFEKINEGFDLLRSGESIRTILTF
- Km: 21 mM

Reference: article PMC4414724
